One assay addresses T1, 4H895-AA.
T1 chain: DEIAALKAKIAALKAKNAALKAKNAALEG
The assay is described as follows: two-hybrid library CCmax.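 Also: natural log of median RNA to DNA barcode read ratio; higher means stronger binding.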

The target in the next assay is T2, 4H_BCR.
T2 chain: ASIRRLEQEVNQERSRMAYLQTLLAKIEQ
The assay can be described thus: two-hybrid library CCmax.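 Also: natural log of median RNA to DNA barcode read ratio; higher means stronger binding.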 The following applies: mean of both orientations.

The next assay addresses GCN2_T. The assay can be described thus: two-hybrid library CCmax.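 Also: natural log of median RNA to DNA barcode read ratio; higher means stronger binding.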 The following applies: mean of both orientations.
A further assay has as its target T3, 4H_APH.
T3 chain: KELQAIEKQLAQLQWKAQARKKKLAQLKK
The assay is described as follows: two-hybrid library CCmax.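 Also: natural log of median RNA to DNA barcode read ratio; higher means stronger binding.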 Particulars: mean of both orientations.

The target of another assay is 4H_GCN4. The assay can be described thus: two-hybrid library CCmax.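 Also: natural log of median RNA to DNA barcode read ratio; higher means stronger binding.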
Chain of 4H_GCN4 (chain, as listed by the source): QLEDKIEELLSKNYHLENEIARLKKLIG
Another assay addresses T4, 4H953-bH.
T4 chain: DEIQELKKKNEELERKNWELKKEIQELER
The assay can be described thus: two-hybrid library CCNG1.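 Also: natural log of median RNA to DNA barcode read ratio; higher means stronger binding.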

A further assay addresses T5, 4H797-bH.
T5 chain: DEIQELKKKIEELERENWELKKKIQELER
The assay can be described thus: two-hybrid library CCNG1.

The next assay concerns the target T6, 4H568-bH.
T6 chain: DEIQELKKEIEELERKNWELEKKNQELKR
The assay can be described thus: two-hybrid library CCNG1.

The target of another assay is T7, 4H967-bH.
T7 chain: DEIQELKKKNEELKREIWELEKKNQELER
The assay is described as follows: two-hybrid library CCNG1.

In the next assay the target is T8, 4H687-bH.
T8 chain: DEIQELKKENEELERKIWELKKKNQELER
The assay is described as follows: two-hybrid library CCNG1.

In another assay the target is T9, 4H883-bH.
T9 chain: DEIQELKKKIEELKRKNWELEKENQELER
The assay can be described thus: two-hybrid library CCNG1.

The target of another assay is T10, 4H754-bH.
T10 chain: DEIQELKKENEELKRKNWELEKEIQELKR
The assay is described as follows: two-hybrid library CCNG1.

Another assay addresses T11, 4H918-bH.
T11 chain: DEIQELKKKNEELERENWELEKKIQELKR
The assay is described as follows: two-hybrid library CCNG1.

The next assay concerns the target T12, 4H607-bH.
T12 chain: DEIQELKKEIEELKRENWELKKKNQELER
The assay is described as follows: two-hybrid library CCNG1.

Another assay has as its target T13, 4H72-bH.
T13 chain: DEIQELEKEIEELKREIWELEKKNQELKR
The assay is described as follows: two-hybrid library CCNG1.

The target in the next assay is T14, 4H908-bH.
T14 chain: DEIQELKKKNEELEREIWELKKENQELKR
The assay can be described thus: two-hybrid library CCNG1.

A further assay has as its target T15, 4H454-bH.
T15 chain: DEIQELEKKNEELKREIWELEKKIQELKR
The assay can be described thus: two-hybrid library CCNG1.

A further assay concerns the target T16, 4H717-bH.
T16 chain: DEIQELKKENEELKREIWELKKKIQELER
The assay can be described thus: two-hybrid library CCNG1.

The next assay has as its target T17, 4H662-AA.
T17 chain: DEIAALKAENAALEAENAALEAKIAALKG
The assay can be described thus: two-hybrid library CCmax. Particulars: mean of both orientations.

Another assay has as its target T18, 4H481-AA.
T18 chain: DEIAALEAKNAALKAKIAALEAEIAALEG
The assay can be described thus: two-hybrid library CCmax. The following applies: mean of both orientations.

The target in another assay is T19, 4H4033-AA.
T19 chain: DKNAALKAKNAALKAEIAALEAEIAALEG
The assay is described as follows: two-hybrid library CCmax.

A further assay has as its target T20, 4H55-AA.
T20 chain: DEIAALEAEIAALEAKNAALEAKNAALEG
The assay is described as follows: two-hybrid library CCmax. The following applies: mean of both orientations.

Another assay has as its target T21, 4H3922-AA.
T21 chain: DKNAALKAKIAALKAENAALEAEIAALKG
The assay can be described thus: two-hybrid library CCmax.

A further assay has as its target T22, 4H454-bA.
T22 chain: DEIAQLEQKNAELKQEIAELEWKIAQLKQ
The assay can be described thus: two-hybrid library CCNG1.

The next assay concerns the target T23, 4H908-bA.
T23 chain: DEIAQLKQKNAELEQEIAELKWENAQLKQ
The assay can be described thus: two-hybrid library CCNG1.

The next assay concerns the target T24, 4H607-bA.
T24 chain: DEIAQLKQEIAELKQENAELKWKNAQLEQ
The assay can be described thus: two-hybrid library CCNG1.

A further assay addresses T25, 4H568-bA.
T25 chain: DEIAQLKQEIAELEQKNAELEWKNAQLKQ
The assay is described as follows: two-hybrid library CCNG1.

For a further assay, the target named is T26, 4H72-bA.
T26 chain: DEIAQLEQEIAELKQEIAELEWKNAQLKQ
The assay is described as follows: two-hybrid library CCNG1.

Another assay concerns the target T27, 4H687-bA.
T27 chain: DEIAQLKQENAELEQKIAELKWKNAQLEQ
The assay is described as follows: two-hybrid library CCNG1.

A further assay concerns the target T28, 4H953-bA.
T28 chain: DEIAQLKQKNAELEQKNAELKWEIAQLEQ
The assay can be described thus: two-hybrid library CCNG1.

The target of another assay is T29, 4H717-bA.
T29 chain: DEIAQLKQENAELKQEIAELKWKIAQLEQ
The assay can be described thus: two-hybrid library CCNG1.

In the next assay the target is T30, 4H754-bA.
T30 chain: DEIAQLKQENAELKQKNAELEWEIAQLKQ
The assay can be described thus: two-hybrid library CCNG1.

A further assay addresses T31, 4H797-bA.
T31 chain: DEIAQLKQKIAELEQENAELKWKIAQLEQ
The assay is described as follows: two-hybrid library CCNG1.

The target of the next assay is T32, 4H918-bA.
T32 chain: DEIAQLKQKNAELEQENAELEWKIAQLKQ
The assay can be described thus: two-hybrid library CCNG1.

A further assay deals with T33, 4H967-bA.
T33 chain: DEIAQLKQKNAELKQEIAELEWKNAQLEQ
The assay is described as follows: two-hybrid library CCNG1.

Another assay addresses T34, 4H883-bA.
T34 chain: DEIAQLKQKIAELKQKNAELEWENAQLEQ
The assay can be described thus: two-hybrid library CCNG1.

Like-named read-outs stand apart in the source and are kept apart here.

B1: 4H895-AA (peptide)
chain: DEIAALKAKIAALKAKNAALKAKNAALEG
Consider B1, for which the interaction score is -1.19 with 4H895-AA; -2.06 in the assay with 4H_BCR; -1.25 with GCN2_T; -1.22 with 4H_APH; -1.86 with 4H_GCN4.

B2: 4H454-bH (peptide)
chain: DEIQELEKKNEELKREIWELEKKIQELKR
Regarding B2, the interaction score in the assay with 4H953-bH is 1.26; with 4H797-bH, -0.829; in the assay with 4H568-bH, 0.197; with 4H967-bH it was 0.69; with 4H687-bH it was 1.81; with 4H883-bH it was -1.26. The interaction score with 4H754-bH was 0.236; in the assay with 4H918-bH, -1.05; with 4H607-bH it was -1.61; in the assay with 4H72-bH it was 0.203; with 4H908-bH it was -0.536; in the assay with 4H454-bH, 1.6. Further, in the assay with 4H717-bH, the interaction score worked out at 0.664.

B3: 4H4033-AA (peptide)
chain: DKNAALKAKNAALKAEIAALEAEIAALEG
Regarding B3, the interaction score was 1.17 in the assay with 4H662-AA, -1.15 with 4H481-AA, -1.66 with 4H4033-AA and -1.39 with 4H55-AA.

B4: 4H3922-AA (peptide)
chain: DKNAALKAKIAALKAENAALEAEIAALKG
Consider B4, for which the interaction score with 4H3922-AA was -0.436; in the assay with 4H662-AA it was -1.16; with 4H481-AA, 1.69; in the assay with 4H4033-AA (mean of both orientations), -0.495; with 4H55-AA it was -1.32.

B5: 4H454-bA (peptide)
chain: DEIAQLEQKNAELKQEIAELEWKIAQLKQ
Regarding B5, the interaction score is 1.86 with 4H454-bA; -0.182 with 4H908-bA; -0.773 in the assay with 4H607-bA; -0.589 with 4H568-bA; -0.678 with 4H72-bA; 1.48 with 4H687-bA. Besides, the interaction score with 4H953-bA is 0.62; with 4H717-bA, 0.262; with 4H754-bA it was -0.711; with 4H797-bA it was -1.06; with 4H918-bA it was -0.912; with 4H967-bA, -0.131. This molecule also had an interaction score with 4H883-bA of -0.0808.
